B1: Enhancer of mRNA-decapping protein 3 (Homo sapiens), Q96F86 (parent)
chain: MATDWLGSIVSINCGDSLGVYQGRVSAVDQVSQTISLTRPFHNGVKCLVPEVTFRAGDITELKILEIPGPGDNQHFGDLHQTELGPSGAGCQVGINQNGTGKFVKKPASSSSAPQNIPKRTDVKSQDVAVSPQQQQCSKSYVDRHMESLSQSKSFRRRHNSWSSSSRHPNQATPKKSGLKNGQMKNKDDECFGDDIEEIPDTDFDFEGNLALFDKAAVFEEIDTYERRSGTRSRGIPNERPTRYRHDENILESEPIVYRRIIVPHNVSKEFCTDSGLVVPSISYELHKKLLSVAEKHGLTLERRLEMTGVCASQMALTLLGGPNRLNPKNVHQRPTVALLCGPHVKGAQGISCGRHLANHDVQVILFLPNFVKMLESITNELSLFSKTQGQQVSSLKDLPTSPVDLVINCLDCPENVFLRDQPWYKAAVAWANQNRAPVLSIDPPVHEVEQGIDAKWSLALGLPLPLGEHAGRIYLCDIGIPQQVFQEVGINYHSPFGCKFVIPLHSA
partner: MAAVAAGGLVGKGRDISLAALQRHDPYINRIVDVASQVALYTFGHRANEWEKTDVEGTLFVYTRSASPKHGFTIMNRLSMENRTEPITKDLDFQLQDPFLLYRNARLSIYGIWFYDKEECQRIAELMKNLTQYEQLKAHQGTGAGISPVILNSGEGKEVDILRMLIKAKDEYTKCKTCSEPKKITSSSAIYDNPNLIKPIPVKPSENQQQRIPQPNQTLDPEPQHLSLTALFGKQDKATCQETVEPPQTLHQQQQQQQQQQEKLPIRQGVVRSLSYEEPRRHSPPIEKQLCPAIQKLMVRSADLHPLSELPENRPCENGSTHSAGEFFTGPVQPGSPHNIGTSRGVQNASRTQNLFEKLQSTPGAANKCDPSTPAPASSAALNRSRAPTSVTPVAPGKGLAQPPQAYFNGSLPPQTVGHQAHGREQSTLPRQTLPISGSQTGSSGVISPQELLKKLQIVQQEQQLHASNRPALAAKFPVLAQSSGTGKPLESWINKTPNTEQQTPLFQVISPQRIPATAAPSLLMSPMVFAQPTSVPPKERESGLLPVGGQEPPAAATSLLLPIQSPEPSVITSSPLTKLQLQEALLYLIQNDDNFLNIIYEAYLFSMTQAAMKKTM
B2: E3 ubiquitin-protein ligase RNF31 (Homo sapiens), Q96EP0 (parent)
chain: MPGEEEERAFLVAREELASALRRDSGQAFSLEQLRPLLASSLPLAARYLQLDAARLVRCNAHGEPRNYLNTLSTALNILEKYGRNLLSPQRPRYWRGVKFNNPVFRSTVDAVQGGRDVLRLYGYTEEQPDGLSFPEGQEEPDEHQVATVTLEVLLLRTELSLLLQNTHPRQQALEQLLEDKVEDDMLQLSEFDPLLREIAPGPLTTPSVPGSTPGPCFLCGSAPGTLHCPSCKQALCPACDHLFHGHPSRAHHLRQTLPGVLQGTHLSPSLPASAQPRPQSTSLLALGDSSLSSPNPASAHLPWHCAACAMLNEPWAVLCVACDRPRGCKGLGLGTEGPQGTGGLEPDLARGRWACQSCTFENEAAAVLCSICERPRLAQPPSLVVDSRDAGICLQPLQQGDALLASAQSQVWYCIHCTFCNSSPGWVCVMCNRTSSPIPAQHAPRPYASSLEKGPPKPGPPRRLSAPLPSSCGDPEKQRQDKMREEGLQLVSMIREGEAAGACPEEIFSALQYSGTEVPLQWLRSELPYVLEMVAELAGQQDPGLGAFSCQEARRAWLDRHGNLDEAVEECVRTRRRKVQELQSLGFGPEEGSLQALFQHGGDVSRALTELQRQRLEPFRQRLWDSGPEPTPSWDGPDKQSLVRRLLAVYALPSWGRAELALSLLQETPRNYELGDVVEAVRHSQDRAFLRRLLAQECAVCGWALPHNRMQALTSCECTICPDCFRQHFTIALKEKHITDMVCPACGRPDLTDDTQLLSYFSTLDIQLRESLEPDAYALFHKKLTEGVLMRDPKFLWCAQCSFGFIYEREQLEATCPQCHQTFCVRCKRQWEEQHRGRSCEDFQNWKRMNDPEYQAQGLAMYLQENGIDCPKCKFSYALARGGCMHFHCTQCRHQFCSGCYNAFYAKNKCPEPNCRVKKSLHGHHPRDCLFYLRDWTALRLQKLLQDNNVMFNTEPPAGARAVPGGGCRVIEQKEVPNGLRDEACGKETPAGYAGLCQAHYKEYLVSLINAHSLDPATLYEVEELETATERYLHVRPQPLAGEDPPAYQARLLQKLTEEVPLGQSIPRRRK
partner: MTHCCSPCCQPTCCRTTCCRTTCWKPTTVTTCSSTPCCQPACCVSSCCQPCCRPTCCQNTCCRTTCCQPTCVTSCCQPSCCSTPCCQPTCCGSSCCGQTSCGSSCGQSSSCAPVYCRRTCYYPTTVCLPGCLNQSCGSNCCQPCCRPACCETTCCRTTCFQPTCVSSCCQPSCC
B3: Coiled-coil domain-containing protein 120 (Homo sapiens), Q96HB5-4 (parent)
chain: MRREPRYQGQVGPDIHTDSERTLSSHQPRPLDSTKMEVKGQLISSPTFNAPAALFGEAAPQVKSERLRGLLDRQRTLQEALSLKLQELRKVCLQEAELTGQLPPECPLEPGERPQLVRRRPPTARAYPPPHPNQAHHSLCPAEELALEALEREVSVQQQIAAAARRLALAPDLSTEQRRRRRQVQADALRRLHELEEQLRDVRARLGLPVLPLPQPLPLSTGSVITTQGVCLGMRLAQLSQEDVVLHSESSSLSESGASHDNEEPHGCFSLAERPSPPKAWDQLRAVSGGSPERRTPWKPPPSDLYGDLKSRRNSVASPTSPTRSLPRSASSFEGRSVPATPVLTRGAGPQLCKPEGLHSRQWSGSQDSQMGFPRADPASDRASLFVARTRRSNSSEALLVDRAAGGGAGSPPAPLAPSASGPPVCKSSEVLYERPQPTPAFSSRTAGPPDPPRAARPSSAAPASRGAPRLPPVCGDFLLDYSLDRGLPRSGGGTGWGELPPAAEVPGPLSRRDGLLTMLPGPPPVYAADSNSPLLRTKDPHTRATRTKPCGLPPEAAEGPEVHPNPLLWMPPPTRIPSAGERSGHKNLALEGLRDWYIRNSGLAAGPQRRPVLPSVGPPHPPFLHARCYEVGQALYGAPSQAPLPHSRSFTAPPVSGRYYADFLYPPELSARLSDLTLEGEQSSSSDTQTPGTLV
partner: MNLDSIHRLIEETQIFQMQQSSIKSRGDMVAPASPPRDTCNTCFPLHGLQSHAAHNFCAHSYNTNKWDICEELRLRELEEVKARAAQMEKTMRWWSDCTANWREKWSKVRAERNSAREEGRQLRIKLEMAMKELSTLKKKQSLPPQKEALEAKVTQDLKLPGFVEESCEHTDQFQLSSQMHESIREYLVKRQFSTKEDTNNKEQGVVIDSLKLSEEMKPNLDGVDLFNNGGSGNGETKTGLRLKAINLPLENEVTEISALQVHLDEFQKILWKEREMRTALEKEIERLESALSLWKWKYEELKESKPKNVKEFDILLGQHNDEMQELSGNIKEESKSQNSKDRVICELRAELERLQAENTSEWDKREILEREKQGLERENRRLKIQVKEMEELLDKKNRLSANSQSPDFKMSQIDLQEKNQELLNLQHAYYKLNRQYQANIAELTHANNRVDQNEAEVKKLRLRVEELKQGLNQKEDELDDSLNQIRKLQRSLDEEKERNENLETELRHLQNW
B4: Protein VAC14 homolog (Homo sapiens), Q08AM6 (parent)
chain: MNPEKDFAPLTPNIVRALNDKLYEKRKVAALEIEKLVREFVAQNNTVQIKHVIQTLSQEFALSQHPHSRKGGLIGLAACSIALGKDSGLYLKELIEPVLTCFNDADSRLRYYACEALYNIVKVARGAVLPHFNVLFDGLSKLAADPDPNVKSGSELLDRLLKDIVTESNKFDLVSFIPLLRERIYSNNQYARQFIISWILVLESVPDINLLDYLPEILDGLFQILGDNGKEIRKMCEVVLGEFLKEIKKNPSSVKFAEMANILVIHCQTTDDLIQLTAMCWMREFIQLAGRVMLPYSSGILTAVLPCLAYDDRKKSIKEVANVCNQSLMKLVTPEDDELDELRPGQRQAEPTPDDALPKQEGTASGGPDGSCDSSFSSGISVFTAASTERAPVTLHLDGIVQVLNCHLSDTAIGMMTRIAVLKWLYHLYIKTPRKMFRHTDSLFPILLQTLSDESDEVILKDLEVLAEIASSPAGQTDDPGPLDGPDLQASHSELQVPTPGRAGLLNTSGTKGLECSPSTPTMNSYFYKFMINLLKRFSSERKLLEVRGPFIIRQLCLLLNAENIFHSMADILLREEDLKFASTMVHALNTILLTSTELFQLRNQLKDLKTLESQNLFCCLYRSWCHNPVTTVSLCFLTQNYRHAYDLIQKFGDLEVTVDFLAEVDKLVQLIECPIFTYLRLQLLDVKNNPYLIKALYGLLMLLPQSSAFQLLSHRLQCVPNPELLQTEDSLKAAPKSQKADSPSIDYAELLQHFEKVQNKHLEVRHQRSGRGDHLDRRVVL
partner: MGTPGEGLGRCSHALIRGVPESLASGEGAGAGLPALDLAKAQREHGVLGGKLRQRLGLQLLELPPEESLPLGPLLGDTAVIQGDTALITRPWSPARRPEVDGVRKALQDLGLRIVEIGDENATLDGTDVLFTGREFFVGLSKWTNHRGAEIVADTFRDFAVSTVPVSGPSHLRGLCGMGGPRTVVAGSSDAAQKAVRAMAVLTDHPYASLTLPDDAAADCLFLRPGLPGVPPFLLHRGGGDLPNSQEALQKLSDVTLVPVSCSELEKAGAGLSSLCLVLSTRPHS

Variants of: B1
Conditions: with dcp1b_human DCP1B

Row | effect of a mutation on the interaction | Variant
1 | with no effect | F213L

Variants of: B2
Conditions: with kra92_human KRTAP9-2, Q9BYQ4

Row | effect of a mutation on the interaction | Variant
2 | with no effect | R646W

Variants of: B3
Conditions: with CCDC102B

Row | effect of a mutation on the interaction | Variant
3 | with no effect | R346W

Variants of: B4
Conditions: with ddah2_human DDAH2, O95865

Row | effect of a mutation on the interaction | Variant
4 | with no effect | A127S
